Laboratory results published in patent publication US20210238296A1 (Genmab, published 2021).

Legend:
[1] = molecular target: T1, FcRnECDHis-B2M-BIO (recombinant biotinylated extracellular domain of human FcRn as dimer with … (human, UniProt P55899 24-297; P61769 21-119, biotinylated); test: FcRn ELISA at pH 6.0
T1 construct: also called FcRnhsECDHis-B2M-BIO

[2] = molecular target: T2, CD20 (human, UniProt P11836 1-297); test: flow cytometry on Wien 133 and Raji cells (FIG. 7)
T2 construct: whole, on cells; cell surface target of IgG1-11B8; also called human CD20
T2 sequence (looked up): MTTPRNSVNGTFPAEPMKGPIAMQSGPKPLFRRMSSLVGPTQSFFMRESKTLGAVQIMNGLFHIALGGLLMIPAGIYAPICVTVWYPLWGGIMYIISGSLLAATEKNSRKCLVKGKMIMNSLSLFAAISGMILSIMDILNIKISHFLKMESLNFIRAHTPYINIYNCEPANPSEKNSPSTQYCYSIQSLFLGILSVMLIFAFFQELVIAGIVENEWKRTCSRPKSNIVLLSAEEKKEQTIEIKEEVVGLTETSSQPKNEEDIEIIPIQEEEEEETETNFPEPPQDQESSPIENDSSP

T1 sequence (P55899 other isoform, or with tags, fused parts or gaps, chain 1 of 2): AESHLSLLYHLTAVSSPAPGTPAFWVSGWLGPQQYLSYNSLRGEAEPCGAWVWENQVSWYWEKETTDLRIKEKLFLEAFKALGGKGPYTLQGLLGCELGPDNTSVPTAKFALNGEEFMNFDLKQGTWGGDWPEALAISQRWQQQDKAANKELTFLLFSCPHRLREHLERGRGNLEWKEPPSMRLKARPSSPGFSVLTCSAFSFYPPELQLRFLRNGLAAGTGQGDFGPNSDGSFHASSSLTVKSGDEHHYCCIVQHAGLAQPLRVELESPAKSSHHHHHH
T1 sequence (P61769 21-119, chain 2 of 2): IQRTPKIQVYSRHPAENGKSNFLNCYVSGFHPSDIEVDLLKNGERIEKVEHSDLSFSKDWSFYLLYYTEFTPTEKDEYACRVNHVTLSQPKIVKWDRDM

B1: IgG1-b12 (antibody)
heavy: not shown
light: EIVLTQSPGTLSLSPGERATFSCRSSHSIRSRRVAWYQHKPGQAPRLVIHGVSNRASGISDRFSGSGSGTDFTLTITRVEPEDFALYYCQVYGASSYTFGQGTKLERKRTVAAPSVFIFPPSDEQLKSGTASVVCLLNNFYPREAKVQWKVDNALQSGNSQESVTEQDSKDSTYSLSSTLTLSKADYEKHKVYACEVTHQGLSSPVTKSFNRGEC
notes: HIV gp120-specific negative control with wild type Fc; also called human IgG1 antibody b12
binding result [1]: binds | binding result [2]: no binding
